Results taken from patent US20210380688A1 (SHENZHEN UNIVERSITY, published 2021).

Target: ROR2 mutant with the deletion of the d-Kringle region, flag-tagged (B4) (human, UniProt Q01974 34-943, limits assumed)
Test: western blot of lysate of transfected 293T cells
Text: In order to find the epitope bound by the B16 chimeric antibody, flag-tagged mutant plasmids (B1-B8) from different regions of the ROR2 protein were constructed (The Flag tag is a polypeptide fragment composed of eight hydrophilic amino acids […], which can be fused with proteins without occupying protein epitopes or structural domains, avoiding affecting the function, secretion, and transport properties of the protein. The flag tag is used to mark the target protein, if the tag is expressed, the target protein will also be expressed). The plasmid used is pcDNA3.0 plasmid. The full-length sequence of human-derived ROR2 protein includes SP region, Ig-like region, CRD region, Kringle region, Kinase region, S/T1 region, Pro region and S/T2 region. Each part and the corresponding function can refer to Debebe Z, Rathmell W K. Ror2 as a Therapeutic Target in Cancer [J]. Pharmacology & Therapeutics, 2015, 150:143-148. […]
After 48 hours of expression, the cells transfected with mutant plasmids in different regions of ROR2 were lysed. By western blot, the expression of ROR2 protein was detected with B16 chimeric antibody, Flag antibody and Santa Cruz's ROR2 antibody (Cat. No.: sc-374174).

Sequence of ROR2 mutant with the deletion of the d-Kringle region, flag-tagged (B4) (Q01974 other isoform, or with tags, fused parts or gaps mutant limits assumed): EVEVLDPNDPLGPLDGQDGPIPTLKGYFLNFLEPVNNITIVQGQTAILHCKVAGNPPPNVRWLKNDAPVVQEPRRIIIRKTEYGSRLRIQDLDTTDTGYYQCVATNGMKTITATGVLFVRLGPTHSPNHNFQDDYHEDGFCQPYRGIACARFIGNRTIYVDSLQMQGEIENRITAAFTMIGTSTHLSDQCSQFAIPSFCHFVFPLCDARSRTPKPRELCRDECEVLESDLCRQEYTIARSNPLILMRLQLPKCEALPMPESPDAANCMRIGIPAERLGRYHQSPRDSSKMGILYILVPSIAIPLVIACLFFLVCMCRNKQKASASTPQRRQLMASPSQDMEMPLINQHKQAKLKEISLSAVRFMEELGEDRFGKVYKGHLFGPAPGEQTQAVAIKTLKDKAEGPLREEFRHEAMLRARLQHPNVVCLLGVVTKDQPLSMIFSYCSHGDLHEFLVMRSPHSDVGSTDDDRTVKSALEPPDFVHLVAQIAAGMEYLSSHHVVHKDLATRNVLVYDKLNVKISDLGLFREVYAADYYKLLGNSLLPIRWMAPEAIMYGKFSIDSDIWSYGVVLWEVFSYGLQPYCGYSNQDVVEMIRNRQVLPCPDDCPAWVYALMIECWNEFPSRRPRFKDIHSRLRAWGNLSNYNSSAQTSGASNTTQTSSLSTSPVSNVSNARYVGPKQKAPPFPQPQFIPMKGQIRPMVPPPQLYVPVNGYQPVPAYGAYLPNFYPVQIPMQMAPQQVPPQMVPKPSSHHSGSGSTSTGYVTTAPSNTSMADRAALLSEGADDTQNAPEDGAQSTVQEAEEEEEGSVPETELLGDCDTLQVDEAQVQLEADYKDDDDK

B1: B16 chimeric antibody (antibody, human IgG1, kappa, V domains shown)
VH: QLQLQQSGPELVKPGASVRMSCKAAGYTFTSYLMHWVKQRPGQDLEWIGYINPYNDGTKYNEKFKDKATLTSDKSSSTVYMELSSLTSEDSAVYYCARSDVYYGVRFAYWGQGTLVTVSA
VL: DIVLTQSPAIMSASPGEKVTMTCSASSSVTYTYWYQQKPGSSPRLLIYDTSNLASGVPVRFSGSGSGTSYSLTISRMEAEDAATYYCQQWSSYPFTFGSGTKLEIKR
notes: also called anti-ROR2 monoclonal antibody B16 chimeric antibody; B16 antibody
binding result: no binding
